Results as given in US6861508B2, “Transcriptional intermediary factor-2” (Institut National de la Sante et de la Recherche Medicale, priority 1996, dated 2005).

Legend:
[1] = tested on: GAL4 reporter; assay: GAL4 DBD-TIF2 fusion CAT reporter transactivation assay; type: cell-based; conditions: Cos-1 and/or HeLa cells
How it was run: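 Transiently transfected HeLa and Cos-1 cells received plasmids (3 μg; 1-10 μg in titration) expressing TIF2 regions or mutants fused to GAL4 DBD(1-147), plus 1 μg (17m)5-G-CAT reporter. CAT activity measured by TLC phosphoimaging or CAT ELISA, normalized to cotransfected β-galactosidase, expressed as fold over GAL4 DBD alone; mean of ≥3 experiments.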

[2] = tested on: ER, RARα and RXRα LBDs; assay: GST pull-down of TIF2 polypeptides with NR LBDs; type: binding; conditions: in vitro, with or without 10^−6 M ligand
Description: (b) Mapping of the nuclear receptor-interacting domain of TIF2.
(c-d) Interaction of TIF2 NID mutants with NRs in vitro. […] For quantification of point mutant interactions, see below.
(e-f) Effect of TIF2 NID point mutations on stimulation of NR AF-2 activity. Cos-1 cells were cotransfected with 1 μg of the (17m)5-TATA-CAT reporter, 0.2 μg of GAL-hERα(EF) or GAL-mRXRα(DE), and 2.5 μg of the TIF2.1 wildtype or mutated fragments, as indicated. […] Each bar represents the mean value obtained from at least three (interaction) or at least four (transactivation) experiments, respectively; standard deviations are indicated. Note that the absolute values for TIF2.1 wildtype activity varied by ±16% when cotransfected with GAL-hERα(EF) and by ±34% when cotransfected with GAL-mRXRα(DE). In the in-vitro-interaction assays, the affinity of the TIF2.1 wildtype standard varied by less than ±25%. Expression levels of TIF2 mutants in the cells were verified by Western blot (not shown) with mouse monoclonal antibody 3Ti3F1, which is directed against an epitope outside the mutated area.
To further delineate the TIF2 NR interaction domain (NID), we studied the interaction between a series of TIF2 deletion mutants and the ER or RARα LBDs, using GST-fusion protein-based in vitro assays. In both cases, an NWD was mapped to the central region of TIF2 (amino acids 624-869 in mutant TIF2.5; see FIGS. 7a and b). No additional NWD could be identified in the N- or C-termini of TIF2 (FIGS. 7a and b; mutants TIF2.0, TIF2.2 and TIF2.7). Note that, in contrast, SRC-1, a paralogue of TIF2, apparently harbours two distinct non-contiguous NIDs located in the central and C-terminal regions (Onate, S. A. et al., Science 270:1354-1357 (1995), Yao, T. P. et al., Proc. Natl. Acad. Sci. USA 93:10626-10631 (1996); Zhu, Y. et al., Gene Epression 6:185-195 (1996)).

[3] = tested on: AF-2 activity of ER, RXRα and RARα; assay: dominant negative effect on NR AF-2 activity, (17m)5-TATA-CAT reporter; type: cell-based; conditions: HeLa and Cos-1 cells
From the text: FIG. 12(a-d). The isolated nuclear receptor-interacting domain (ND) of TIF2 acts dominant-negatively on the transcriptional activation by the ER, RXR and RAR LBDs. The mean value of induction obtained from the quantitation of at least three experiments (relative to the respective receptor LBD activity in absence of recombinant TIF2) is indicated below each panel. Expression levels of TIF2, TIF2.1 and TIF2.5 were routinely verified by Western blot with mouse monoclonal antibody 3Ti3C11 directed against a region of TIF2.5 (not shown).
(b-d) Full length TIF2 and the coactivator fragment TIF2.1 enhance, whereas the nuclear receptor interacting domain TJF2.5 blocks the activity of the ER, RXR and RAR LBDs. Cos-1 and HeLa cells were cotransfected with 1 μg of the (17m)5-TATA-CAT reporter and 0.2 μg of the expression vector encoding the respective GAL DBD-fusion of hERα(EF), mRXRα(DE) or mRARα(DEF).
Assuming that TIF2 or coactivators recognizing the TIF2 interacting surface on NR LBDs, generally mediate the AF-2 function of NRs, the NID containing TIF2.5 should exert its dominant negative activity not only on ER, but also on other NRs, independently of the cellular context. We therefore analyzed the effect of TIF2.5 on the AF-2 activity of ER, RXRα and RARα in HeLa and in Cos-1 cells (FIGS. 12b-d).

binding to NRs (ER, RARα LBDs) [2]: can bind to NRs
B1: TIF2.5: TIF2 fragment amino acids 624-869, isolated NID (protein)
chain: ERADGQSRLHDSKGQTKLLQLLTTKSDQMEPSPLASSLSDTNKDSTGSLPGSGSTHGTSLKEKHKILHRLLQDSSSPVDLAKLTAEATGKDLSQESSSTAPGSEVTIKQEPVSPKKKENALLRYLLDKDDTKDIGLPEITPKLERLDSKTDPASNTKLIAMKTEKEEMSFEPGDQPGSELDNLEEILDDLQNSQLPQLFPDTRPGAPAGSVDKQAIINDLMQLTAENSPVTPVGAQKTALRISQST
transcriptional activation of GAL4 reporter by GAL4 DBD fusion [1]: cannot activate transcription | effect on NR AF-2 activity [3]: dose-dependent inhibition of the NR AF-2 activity
